The values below come from PMC12372851.

The data set deals with 3Flag-Lef1 (zebrafish) (UniProt Q9W7C0). Put plainly: EMSA. The conditions noted are these: 100 mM Hepes pH 7.5, 100 mM NaCl, 50 mM KCl, 1 mM DTT, 1 mM EDTA, 5% glycerol, 30 min at 25 °C.
Chain of UniProt Q9W7C0 (Q9W7C0 entry or part of it): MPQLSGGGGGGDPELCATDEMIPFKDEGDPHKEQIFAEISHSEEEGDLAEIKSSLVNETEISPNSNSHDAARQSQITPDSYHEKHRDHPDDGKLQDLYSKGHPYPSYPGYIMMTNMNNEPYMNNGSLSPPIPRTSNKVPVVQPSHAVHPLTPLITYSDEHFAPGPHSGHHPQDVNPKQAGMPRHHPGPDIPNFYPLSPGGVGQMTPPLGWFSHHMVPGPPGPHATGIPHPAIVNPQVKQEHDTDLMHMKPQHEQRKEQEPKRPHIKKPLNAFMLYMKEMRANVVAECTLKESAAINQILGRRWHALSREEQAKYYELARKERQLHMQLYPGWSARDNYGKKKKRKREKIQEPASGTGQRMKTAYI

With “CACCACTGATAAAAACTATTAAAGATCAGTCTGGGAGTCACTACTTTACTACTTGGTTTCATCAAAGTATTAAAAAAAGTGATGCGCTGCCTTCTTTAAATGCGTTCAC (double strand) [eya2 promoter WT EMSA probe]”, the binding result is “binds”.
